Data on 114 variants can be found in paper PMC12554172 (2025).

The labels stand for the following.
B1: FLAG-tagged FBXO44 FBA domain (FBXO44^FBA) [human] / RGS2^5–16 peptide (RGS2 degron, Met^5–Met^16) [not stated] (parent complex)
chain 1: FYFLRSLHRNLLHNPCAEEGFEFWSLDVNGGDEWKVEDLSRDQRKEFPNDQVKKYFVTSYYTCLKSQVVDLKAEGYWEELMDTTRPDIEVKDWFAARPDCGSKYQLCVQLLSSAHAPLGTFQPDPATIQQKSDAKWREVSHTFSNYPPGVRYIWFQHGGVDTHYWAGWYGPRVTNSSITIGP
chain 2: MFLAVQHDCRPM

Variants of B1 are the subject of the first assay. Put plainly: peptide microarray (PEPperPRINT), α-FLAG fluorescence; three independent experiments with three technical replicates each; parent: 100; read off a plot.
With chain 2 MFLAVQHKCRPM [chain 2 D8K], the percent of parent is about 220 % Parent Peptide. Same read-out and setting: to chain 2 MFLAVQHRCRPM [chain 2 D8R] belongs about 280 % Parent Peptide; to chain 2 MFLAVQRDCRPM [chain 2 H7R], about 140 % Parent Peptide; to chain 2 MFLAVQHDCRPR [chain 2 M12R], about 200 % Parent Peptide.

On to chain 2 MFLAVQHDCRRM [chain 2 P11R], for which the percent of parent was about 260 % Parent Peptide. Same read-out and setting: to chain 2 MFLAVQHDCRKM [chain 2 P11K] belongs about 150 % Parent Peptide; to chain 2 MFLAVQHDRRPM [chain 2 C9R], about 130 % Parent Peptide.

In the next assay the parent is B1. Described as above. The source holds these as a separate data set.
Turning to chain 2 MFLAVQHKCRPM [chain 2 D8K], the percent of parent is about 220 % Parent.

Regarding chain 2 MFLAVQHQCRPM [chain 2 D8Q], the percent of parent was about 160 % Parent.

For the variant chain 2 MFLAVQHECRPM [chain 2 D8E], the percent of parent was about 100 % Parent. As for chain 2 MFLAVQHGCRPM [chain 2 D8G], the percent of parent is about 130 % Parent. Same read-out and setting: to chain 2 MFLAVQHLCRPM [chain 2 D8L] belongs about 130 % Parent; to chain 2 MFLAVQHHCRPM [chain 2 D8H], about 130 % Parent; to chain 2 MFLAVQHMCRPM [chain 2 D8M], about 140 % Parent. The same measure, in the same setting: to chain 2 MFLAVQHICRPM [chain 2 D8I] belongs about 140 % Parent. Still for that read-out and setting: the result for chain 2 MFLAVQHCCRPM [chain 2 D8C] reads about 140 % Parent; that for chain 2 MFLAVQHTCRPM [chain 2 D8T], about 130 % Parent. Take chain 2 MFLAVQHWCRPM [chain 2 D8W]: the percent of parent is about 150 % Parent. On the same count and under the same terms, to chain 2 MFLAVQHVCRPM [chain 2 D8V] belongs about 140 % Parent; to chain 2 MFLAVQHSCRPM [chain 2 D8S], about 160 % Parent; to chain 2 MFLAVQHFCRPM [chain 2 D8F], about 130 % Parent. The same measure, in the same setting: the result for chain 2 MFLAVQHACRPM [chain 2 D8A] reads about 120 % Parent; that for chain 2 MFLAVQHYCRPM [chain 2 D8Y], about 130 % Parent. The same measure, in the same setting: to chain 2 MFLAVQHNCRPM [chain 2 D8N] belongs about 150 % Parent; to chain 2 MFLAVQHRCRPM [chain 2 D8R], about 280 % Parent.

Turning to chain 2 MFLAVQHPCRPM [chain 2 D8P], the percent of parent is about 160 % Parent.

Variants of B1 are the subject of the next assay. The description is as above. This is another data set of the same source.
With chain 2 MFLAVQFDCRPM [chain 2 H7F], the percent of parent is about 100 % Parent. Same read-out and setting: the result for chain 2 MFLAVQKDCRPM [chain 2 H7K] reads about 120 % Parent; that for chain 2 MFLAVQRDCRPM [chain 2 H7R], about 140 % Parent; that for chain 2 MFLAVQQDCRPM [chain 2 H7Q], about 110 % Parent.

As for chain 2 MFLAVQTDCRPM [chain 2 H7T], the percent of parent was about 95 % Parent.

Turning to chain 2 MFLAVQSDCRPM [chain 2 H7S], the percent of parent was about 100 % Parent. Same read-out and setting: to chain 2 MFLAVQYDCRPM [chain 2 H7Y] belongs about 110 % Parent; to chain 2 MFLAVQIDCRPM [chain 2 H7I], about 100 % Parent. Same read-out and setting: the result for chain 2 MFLAVQEDCRPM [chain 2 H7E] reads about 95 % Parent. The same measure, in the same setting: the result for chain 2 MFLAVQLDCRPM [chain 2 H7L] reads about 100 % Parent; that for chain 2 MFLAVQNDCRPM [chain 2 H7N], about 100 % Parent; that for chain 2 MFLAVQMDCRPM [chain 2 H7M], about 95 % Parent. In the case of chain 2 MFLAVQGDCRPM [chain 2 H7G], the percent of parent is about 90 % Parent. Same read-out and setting: to chain 2 MFLAVQVDCRPM [chain 2 H7V] belongs about 100 % Parent; to chain 2 MFLAVQWDCRPM [chain 2 H7W], about 110 % Parent. Turning to chain 2 MFLAVQDDCRPM [chain 2 H7D], the percent of parent is about 100 % Parent.

With chain 2 MFLAVQADCRPM [chain 2 H7A], the percent of parent was about 95 % Parent. The same measure, in the same setting: to chain 2 MFLAVQPDCRPM [chain 2 H7P] belongs about 110 % Parent; to chain 2 MFLAVQCDCRPM [chain 2 H7C], about 120 % Parent.

The variants in another assay derive from B1. The assay is described as above. The source holds these as a separate data set.
With chain 2 MFLAVQHDCRPI [chain 2 M12I], the percent of parent was about 85 % Parent. On the same count and under the same terms, to chain 2 MFLAVQHDCRPF [chain 2 M12F] belongs about 100 % Parent; to chain 2 MFLAVQHDCRPD [chain 2 M12D], about 130 % Parent.

On to chain 2 MFLAVQHDCRPP [chain 2 M12P], for which the percent of parent is about 90 % Parent. On the same count and under the same terms, to chain 2 MFLAVQHDCRPR [chain 2 M12R] belongs about 200 % Parent; to chain 2 MFLAVQHDCRPT [chain 2 M12T], about 85 % Parent; to chain 2 MFLAVQHDCRPA [chain 2 M12A], about 67 % Parent. On the same count and under the same terms, the result for chain 2 MFLAVQHDCRPE [chain 2 M12E] reads about 110 % Parent; that for chain 2 MFLAVQHDCRPS [chain 2 M12S], about 92 % Parent. The same measure, in the same setting: to chain 2 MFLAVQHDCRPK [chain 2 M12K] belongs about 140 % Parent; to chain 2 MFLAVQHDCRPN [chain 2 M12N], about 87 % Parent.

For the variant chain 2 MFLAVQHDCRPG [chain 2 M12G], the percent of parent was about 72 % Parent. The same measure, in the same setting: to chain 2 MFLAVQHDCRPQ [chain 2 M12Q] belongs about 88 % Parent. Still for that read-out and setting: the result for chain 2 MFLAVQHDCRPC [chain 2 M12C] reads about 130 % Parent; that for chain 2 MFLAVQHDCRPH [chain 2 M12H], about 90 % Parent. On the same count and under the same terms, to chain 2 MFLAVQHDCRPW [chain 2 M12W] belongs about 110 % Parent.

For chain 2 MFLAVQHDCRPV [chain 2 M12V], the percent of parent is about 90 % Parent. On the same count and under the same terms, the result for chain 2 MFLAVQHDCRPY [chain 2 M12Y] reads about 120 % Parent; that for chain 2 MFLAVQHDCRPL [chain 2 M12L], about 90 % Parent.

In another assay the parent is B1. Described as above. The source holds these as a separate data set.
Consider chain 2 MFLAVQHDCRFM [chain 2 P11F], for which the percent of parent is about 100 % Parent. The same measure, in the same setting: the result for chain 2 MFLAVQHDCRRM [chain 2 P11R] reads about 260 % Parent; that for chain 2 MFLAVQHDCRWM [chain 2 P11W], about 110 % Parent; that for chain 2 MFLAVQHDCRGM [chain 2 P11G], about 68 % Parent. On the same count and under the same terms, the result for chain 2 MFLAVQHDCRMM [chain 2 P11M] reads about 100 % Parent; that for chain 2 MFLAVQHDCRDM [chain 2 P11D], about 130 % Parent. Same read-out and setting: the result for chain 2 MFLAVQHDCRNM [chain 2 P11N] reads about 85 % Parent; that for chain 2 MFLAVQHDCRAM [chain 2 P11A], about 72 % Parent. On to chain 2 MFLAVQHDCRQM [chain 2 P11Q], for which the percent of parent is about 90 % Parent. The same measure, in the same setting: to chain 2 MFLAVQHDCRHM [chain 2 P11H] belongs about 85 % Parent; to chain 2 MFLAVQHDCRIM [chain 2 P11I], about 88 % Parent. Still for that read-out and setting: the result for chain 2 MFLAVQHDCRTM [chain 2 P11T] reads about 85 % Parent; that for chain 2 MFLAVQHDCRLM [chain 2 P11L], about 82 % Parent; that for chain 2 MFLAVQHDCRKM [chain 2 P11K], about 150 % Parent. On the same count and under the same terms, the result for chain 2 MFLAVQHDCRYM [chain 2 P11Y] reads about 110 % Parent. Turning to chain 2 MFLAVQHDCRCM [chain 2 P11C], the percent of parent is about 120 % Parent.

Turning to chain 2 MFLAVQHDCREM [chain 2 P11E], the percent of parent is about 88 % Parent.

On to chain 2 MFLAVQHDCRSM [chain 2 P11S], for which the percent of parent was about 100 % Parent. Same read-out and setting: to chain 2 MFLAVQHDCRVM [chain 2 P11V] belongs about 85 % Parent.

The next assay covers variants of B1. The assay is described as above. This is another data set of the same source.
chain 2 MFLAVQHDCGPM [chain 2 R10G]: the percent of parent was about 78 % Parent. The same measure, in the same setting: the result for chain 2 MFLAVQHDCCPM [chain 2 R10C] reads about 110 % Parent; that for chain 2 MFLAVQHDCFPM [chain 2 R10F], about 95 % Parent; that for chain 2 MFLAVQHDCLPM [chain 2 R10L], about 82 % Parent. Still for that read-out and setting: the result for chain 2 MFLAVQHDCMPM [chain 2 R10M] reads about 88 % Parent. Still for that read-out and setting: to chain 2 MFLAVQHDCIPM [chain 2 R10I] belongs about 78 % Parent; to chain 2 MFLAVQHDCKPM [chain 2 R10K], about 80 % Parent; to chain 2 MFLAVQHDCVPM [chain 2 R10V], about 85 % Parent. Regarding chain 2 MFLAVQHDCSPM [chain 2 R10S], the percent of parent is about 85 % Parent. With chain 2 MFLAVQHDCNPM [chain 2 R10N], the percent of parent was about 82 % Parent. Still for that read-out and setting: to chain 2 MFLAVQHDCTPM [chain 2 R10T] belongs about 80 % Parent; to chain 2 MFLAVQHDCHPM [chain 2 R10H], about 75 % Parent; to chain 2 MFLAVQHDCDPM [chain 2 R10D], about 110 % Parent. As to chain 2 MFLAVQHDCWPM [chain 2 R10W], the percent of parent was about 120 % Parent. On the same count and under the same terms, to chain 2 MFLAVQHDCAPM [chain 2 R10A] belongs about 72 % Parent.

For the variant chain 2 MFLAVQHDCPPM [chain 2 R10P], the percent of parent is about 80 % Parent.

As to chain 2 MFLAVQHDCYPM [chain 2 R10Y], the percent of parent was about 120 % Parent. Still for that read-out and setting: to chain 2 MFLAVQHDCEPM [chain 2 R10E] belongs about 110 % Parent; to chain 2 MFLAVQHDCQPM [chain 2 R10Q], about 80 % Parent.

Variants of B1 are the subject of another assay. Described as above. The source holds these as a separate data set.
As for chain 2 MFLAVQHDKRPM [chain 2 C9K], the percent of parent is about 47 % Parent. Same read-out and setting: to chain 2 MFLAVQHDMRPM [chain 2 C9M] belongs about 13 % Parent; to chain 2 MFLAVQHDQRPM [chain 2 C9Q], about 25 % Parent; to chain 2 MFLAVQHDARPM [chain 2 C9A], about 25 % Parent. For the variant chain 2 MFLAVQHDDRPM [chain 2 C9D], the percent of parent was about 28 % Parent. Still for that read-out and setting: the result for chain 2 MFLAVQHDPRPM [chain 2 C9P] reads about 15 % Parent; that for chain 2 MFLAVQHDNRPM [chain 2 C9N], about 15 % Parent; that for chain 2 MFLAVQHDTRPM [chain 2 C9T], about 15 % Parent. Same read-out and setting: the result for chain 2 MFLAVQHDFRPM [chain 2 C9F] reads about 20 % Parent; that for chain 2 MFLAVQHDYRPM [chain 2 C9Y], about 55 % Parent; that for chain 2 MFLAVQHDWRPM [chain 2 C9W], about 50 % Parent.

On to chain 2 MFLAVQHDGRPM [chain 2 C9G], for which the percent of parent was about 13 % Parent.

Regarding chain 2 MFLAVQHDHRPM [chain 2 C9H], the percent of parent is about 17 % Parent. Same read-out and setting: the result for chain 2 MFLAVQHDSRPM [chain 2 C9S] reads about 13 % Parent. In the case of chain 2 MFLAVQHDIRPM [chain 2 C9I], the percent of parent is about 15 % Parent. With chain 2 MFLAVQHDVRPM [chain 2 C9V], the percent of parent was about 13 % Parent. Regarding chain 2 MFLAVQHDRRPM [chain 2 C9R], the percent of parent is about 130 % Parent. Regarding chain 2 MFLAVQHDERPM [chain 2 C9E], the percent of parent is about 15 % Parent. Same read-out and setting: to chain 2 MFLAVQHDLRPM [chain 2 C9L] belongs about 13 % Parent.
